Here are results for 21 substances from PMC9163516.

Read-outs that look alike come from different tables or passages of the source.

The term Kd denotes a measure of binding affinity in units of concentration. A higher Kd goes with lower affinity. As a reminder, the stoichiometry N is a count of units in the complex or per binding partner. The koff is a measure of how fast the partners let go of each other. A low value points to a long-lived complex. What is called kon is the second-order rate constant of association. The low end stands for slow association, the high end for fast association.

The target in assay [1] is TβRII ectodomain (UniProt P37173). Description: ITC; competition: 150 μM mmTGF-β27M injected into 15 μM TβRII with 0, 6.0 or 12.0 μM TGM-D3; 25 mM sodium phosphate, 50 mM NaCl, pH 6.0, 35 °C; global fit of the three datasets to a 1:1 model with competition.
Assay [2] concerns the target biotinylated avi-tagged TβRII (UniProt P37173). As to the kind of experiment: SPR; biotinylated avi-tagged TβRII captured at 50-150 RU on neutravidin-coated CM-5 chip; WT TGM-D3 or TGM-D3 variants injected in 25 mM Hepes, pH 7.4, 150 mM NaCl, 0.05% P20, 100 μl/min; 1:1 fit of duplicate or triplicate injection series.
Assay [3] has the same target. Described as above. This is another data set of the same source.
The target is the same in assay [4].
For assay [5], the target named is biotinylated avi-tagged TGM-D3 (Heligmosomoides polygyrus). Description: SPR; biotinylated avi-tagged TGM-D3 captured at 50-150 RU on neutravidin-coated CM-5 chip; TβRII variants injected in 25 mM Hepes, pH 7.4, 150 mM NaCl, 0.05% P20, 100 μl/min; 1:1 fit of duplicate or triplicate injection series. (SPR reads the build-up and loss of mass on a sensor chip optically.)

The target of assay [6] is TβRII ectodomain (UniProt P37173). As to the kind of experiment: ITC; TGM construct in the syringe (300-320 µM), 15 µM TβRII in the cell; 25 mM sodium phosphate, 50 mM NaCl, pH 6.0, 35 °C; 1:1 model (Nitpic, Sedphat).
In assay [7] the target is TβRI ectodomain (UniProt P36897). As to the kind of experiment: ITC; TGM construct in the syringe (58-150 µM), 7.5 µM TβRI in the cell; 25 mM Hepes, 50 mM NaCl, 0.05% NaN3, pH 7.5, 25 °C; 1:1 model (Nitpic, Sedphat). A general note: Isothermal titration calorimetry measures the heat released or taken up as one component is titrated into another.
Assay [8] has as its target biotinylated avi-tagged TβRII (UniProt P37173). As to the kind of experiment: SPR; BIAcore X100; biotinylated avi-tagged TβRI or TβRII captured on neutravidin-coated CM-5 chip (results say streptavidin) at 50-150 RU; TGM constructs injected as 2-fold dilution series in 25 mM Hepes, pH 7.4, 150 mM NaCl, 0.005% P20, 100 μl/min; 1:1 kinetic fit of a single injection series.

The target of assay [9] is TβRII ectodomain (UniProt P37173). Description: ITC; TGM construct titrated into TβRII in the cell; 25 mM sodium phosphate, 50 mM NaCl, pH 6.0, 35 °C; 1:1 model.
The target in assay [10] is biotinylated avi-tagged TβRI (UniProt P36897). As to the kind of experiment: SPR; BIAcore X100; biotinylated avi-tagged TβRI or TβRII captured on neutravidin-coated CM-5 chip (results say streptavidin) at 50-150 RU; TGM constructs injected as 2-fold dilution series in 25 mM Hepes, pH 7.4, 150 mM NaCl, 0.005% P20, 100 μl/min; 1:1 kinetic fit of a single injection series.
Assay [11] deals with TβRI ectodomain (UniProt P36897). Description: ITC; TGM construct titrated into TβRI in the cell; 25 mM Hepes, 50 mM NaCl, 0.05% NaN3, pH 7.5, 25 °C; 1:1 model.
Assay [12] shares this target. Description: ITC; TGF-β3(TβRII)2 complex titrated into TβRI; 25 mM Hepes, 50 mM NaCl, 0.05% NaN3, pH 7.5, 30 °C.

With “mmTGF-β27M, engineered TGF-β monomer (from UniProt P61812) (ligand)”, in the assay with TβRII ectodomain [1], the Kd came to 35 nM. On to TGM-D3 R198A (domain or fragment), for which the fold increase of KD against WT in assay [2] is more than 20 fold; in assay [3], more than 30 fold. Take TGM D13 Y252A (domain or fragment): in [4], the EC50 of signaling, MFB-F11 TGF-β reporter bioassay amounted to 7 ng/mL. On the same count and under the same terms, for “TGM D13 (TGM D1-D3), wild type (domain or fragment)” the value was 3.9 ng/mL.

In the case of “TβRII E142Q (from UniProt P37173 23-166) (receptor)”, the fold increase of KD against WT in [5] was 17 fold. TGM-FL (natural protein): the Kd came to 550 nM with TβRII ectodomain [6] and 52 nM with TβRI ectodomain [7]. For the same substance, the stoichiometry N stood at 0.84 with TβRII ectodomain [6] and 0.96 with TβRI ectodomain [7]. In [5], “TβRII I73A (from UniProt P37173 23-166) (receptor)” returned a fold increase of KD against WT of 7 fold.

The substance TGM D13 I238A (domain or fragment) had an EC50 of signaling, MFB-F11 TGF-β reporter bioassay in assay [4] of 9.7 ng/mL. In assay [8], TGM-D3 (domain or fragment) had a Kd of 910 nM, a koff of 0.6 s⁻¹ and an on-rate (kon) of 600000 M⁻¹ s⁻¹. The stoichiometry N with TβRII ectodomain [9] turned out to be 1.

As to “full-length TGM (TGF-β mimic) (natural protein)”, in assay [10], the Kd amounted to 13 nM, the koff turned out to be 0.00078 s⁻¹ and the kon is 59000 M⁻¹ s⁻¹. In assay [8], this substance returned a Kd of 610 nM, a koff of 0.1 s⁻¹ and a kon of 2e+07 M⁻¹ s⁻¹. The substance also gave a stoichiometry N with TβRII ectodomain [9] of 1. For the same substance, in the assay with TβRI ectodomain [11], the stoichiometry N came out at 1. On to TGM-D3 Y252A (domain or fragment), for which, in assay [2], the fold increase of KD against WT is more than 20 fold.

In the case of TGM-D3 V236A (domain or fragment), the fold increase of KD against WT in [2] amounted to 4 fold.

As for TGM D13 I256A (domain or fragment), the EC50 of signaling, MFB-F11 TGF-β reporter bioassay in assay [4] amounted to 4.5 ng/mL. In the case of “TβRII S75L (from UniProt P37173 23-166) (receptor)”, in assay [5], the fold increase of KD against WT was 200 fold. As for TGM-D3 F235A (domain or fragment), in assay [2], the fold increase of KD against WT amounted to 4 fold. In the assay with TβRI ectodomain [7], TGM-D2 (domain or fragment) yielded a Kd of 1500 nM and a stoichiometry N of 0.54. In the case of TGM-D3 K254A (domain or fragment), the results for the fold increase of KD against WT in [2] and in assay [3] were more than 20 fold and more than 30 fold, respectively.

“TβRII I76A (from UniProt P37173 23-166) (receptor)” had a fold increase of KD against WT in assay [5] of 26 fold. In the assay with TβRI ectodomain [12], “TGF-β3(TβRII)2 binary complex (from UniProt P37173 23-166)” gave a Kd of 61 nM and a dH of -4.2 kcal/mol. TGM-D3 I238A (domain or fragment) registered a fold increase of KD against WT in [2] of more than 20 fold.

The substance TGM-D12 (domain or fragment) registered a stoichiometry N with TβRI ectodomain [7] of 1.2.
